Assay results published in PMC10646970.

Target: PD-L1 (programmed cell death ligand 1), N-terminal domain

## wild-type (natural) PD-1 (from UniProt Q15116 25-170) (natural protein)
  increase in IFN-gamma production in MDA-MB-231/PBMC coculture, 10 ug/mL protein, 48 h, ELISA; PD-L1 is that on the tumour cells; pair blocked: PD-1 on PBMCs / PD-L1: 92%
